Experimental data published in paper PMC5464678 (The Journal of Physical Chemistry Letters, 2017).

Target: T1, Cnu (UniProt P64467 1-71)
T1 sequence (looked up): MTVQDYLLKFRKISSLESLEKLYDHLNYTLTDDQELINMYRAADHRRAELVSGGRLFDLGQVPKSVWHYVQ
Experiment: fluorescence polarisation; tryptophan fluorescence anisotropy of Cnu, titrated with H-NS(1-59) at select temperatures (278 to 310 K); apparent dissociation constants from fits assuming a 1:1 binding equilibrium
Details: both partners purified

fold decrease of binding affinity, 310 K against 278 K: ~5 fold
B1: H-NS_(1–59) (domain or fragment, UniProt P0ACF8 1-59, looked up)
chain: MSEALKILNNIRTLRAQARECTLETLEEMLEKLEVVVNERREEESAAAAEVEERTRKLQ
